# Results as given in patent US11766403B2, “Peptide-targeted liposomal delivery for treatment, diagnosis, and imaging of diseases and disorders” (University of Maryland, Baltimore, priority 2019, dated 2023).
# Where no end group is shown, it is not given here.
# Columns and labels:
# [1] = system: rat arthritic joints; test: In vivo distribution of Cy7-labeled ART-2 peptide (homing to arthritic joints); details: i.v., arthritic rats, 4 h
# Experimental: (§1) FIG. 4, comprising FIG. 4A through FIG. 4D, depicts in vitro and in vivo binding of ART-2 peptides. FIG. 4A depicts the binding of fluorescein isothiocyanate (FITC)-labeled ART-2 peptide to human umbilical vein endothelial cells (HUVEC) in vitro (HUVEC were treated with ART-2-FITC peptides for 2 h at the indicated concentrations). A representative histogram is shown. FIG. 4B depicts HUVEC that were stained with ART-2-FITC peptide at 0.5 μM concentration, PE-labeled CD31 (a marker for endothelial cells), and DAPI (for nucleus staining) and examined under a fluorescence microscope. FIG. 4C depicts in vivo distribution of Cyanine 7 (Cy7)-labeled ART-2 peptide: real-time fluorescence imaging of arthritic rats at 4 h time point after i.v. injection of the peptide following the procedure described in the legend to FIG. 7. FIG. 4D depicts images of ex-vivo fluorescence of different organs harvested from arthritic rats at 4 h after i.v. injection of ART-2-Cy7-peptide.
# [2] = system: human umbilical vein endothelial cells (HUVEC); test: Binding of FITC-labeled ART-2 peptide to endothelial cells in vitro; type: cell-based; details: 2 h
# Experimental: as §1
sequence,measurement,setting,value
"CKPFDRALC (not fully specified; cysteine pairing not given here) [ART-2, novel tissue-targeting peptide]",homing to arthritic joints,[1],preferential homing to rat arthritic joints
same,binding of peptide to endothelial cells,[2],avid binding to endothelial cells
